Assay: yeast display, Sf9 membrane polyspecificity reagent, FACS + sequencing; frameworks hold sequencing errors
In short: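 Genes from sorted yeast were amplified by colony PCR, read by MiSeq 2 × 250 sequencing and filtered on CDR length. These cells carried a synthetic nanobody library in Saccharomyces cerevisiae BJ5465 and were sorted by FACS into low and high (top ~1%) gates on anti-HA and streptavidin fluorescence. Polyreactivity is labelled according to the gate of origin.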

Sequence | polyreactivity (PSR sort gate)
QVQLVESGGGIVQAGGSLRLSCAASGSIFSGNAMGWYRQAPGKERELVAAIDRGGSTYYADSVKGRFTISRDNAKNTVYLQMNRLKPEDTAVYYCAKEYIVYNWAFYYWGQGTQVTVSS | low polyreactivity
QVQLVESGGGIVQAGGSLRLSCAASGSIFTRYAMGWYRPAPGKERELVAAITKSGSRTYYADSVKGRFTISRDNAKNTVYLQLNCLIAEDTAVFYCATLQGDSSSQYDYWGQGTQVTVSS | high polyreactivity
QVQLVESGGGIVQAGGSLRLSCAASGSIFTVNALGWYRQAPGKERELVAAITFGGGRTYYADSVKGRFTISRDNAKNTVYLQMNSLKPEDTAVYYCAVSRKGLGSVEYWGQGTQVTVSS | low polyreactivity
QVQLVESGGGIVQAGGSLRLSCAASGSILDPNAMGTYRQAPGKEREFVASISASGGSTYYADSVKGRFSISRDIAKNTVYLQLNSLKPEDTAVYYCATLQGDSSSQYDYWGQGTQVTVSS | high polyreactivity
QVQLVESGGGIVQAGGSLRLSCAASGSTFDRYAMGWYRQAPGKERALVAAISWSGGSTYYADSVKGRFTISRDNAKNTVFLQMNSLKPEDTAVYYCNTASYYRRFHKYDYWGQGTQVTVSS | high polyreactivity
QVQLVESGGGIVQAGGSLRLSCAASGSTFKSYAMGWYRQAPGKERELVAAITHRGSTYYADSVKGSFTISRDNAKNTVYLQMKSLKPEDTAVYYCNVRRICNGRRVDYWGQGTQVTVSS | high polyreactivity
QVQLVESGGGIVQAGGSLRLSCAASGSTFSKYAMGWYRQAPGNERELVAAISSRGGSTYYADSVKGRFTISRDNAKNTVYLQMNCLKPEDTAVYYCAAKFYAEYGYWGHGTQVTVSS | high polyreactivity
QVQLVESGGGIVQAGGSLRLSCAASGSTFYKYAMGWYRQAPGKERELVASISRSGGSTSYADSVKGRFTISRDNAKNTVYLQMNSLKPEDTAVYYCAARSLSWTPYYYWGQGTQVTVSS | high polyreactivity
QVQLVESGGGIVQAGGSLRLSCAASGSTGFNTMGWYRQAPGKERELVAAIRATGGSTYYADSVKGRFTISRDNAKNTVYLQMNSLKPEDTAVYYCAAKWFRQYLRQDRYYYWGQGTQVTVSS | high polyreactivity
QVQLVESGGGIVQAGGSLRLSCAASGSTLGSNSMGWYRQAPGKERELVAAITWSGGTTYYADSVKGRFTISRDNAKNTVYLQMNSLKPEYTAVYYCATGQSVIYRYEYWGQGTQVTVSS | low polyreactivity
QVQLVESGGGIVQAGGSLRLSCAASGSTLRWNAMGWYRQAPGKERELVAAIRWSTGSTYYADSVKGRFTISRDNAKNTVYLQMNSLKPEDTAVYYCAARQGRARTPNDHNYWGQGTKVTVSS | high polyreactivity
QVQLVESGGGIVQAGGSLRLSCAASGSTLYLYVMGWYRQAPGKERELVAVISSSSGRTYYADSVKGRFTISRDNAKNTVYLQMNSLKPEDTAVYYCAADNYVGYHWYNYWGQGTQVTVSS | high polyreactivity
QVQLVESGGGIVQAGGSLRLSCAASGSTYYGYTMGWYRQAPGKERELVAVITSGGSTYYADSVKGRFTISRDNAKNTVYLQMNILKPEDRAVYYCAKRYGYPAYGRPWRIGRTYDYWGQGTQVTVSS | low polyreactivity
QVQLVESGGGIVQAGGSLRLSCAASGYTFPRYAMGWYRQAPGKERELVAAITSRGGSTYYADSVKGRFTISRDNAKNTVYLQMNSLKPEDTAVYYCAVLGFGALDFDSWGQGTQVTVSS | high polyreactivity
QVQLVESGGGIVQAGGSLRLSCAASGYTYPRYTMGWYRQAPGKERELVAVIRRSGGTHYADSVKGRFTISRDNAKNTVYLHMNRLKPEETAVYYCAVVSFLPNIPYGYWGQGTQVTVSS | high polyreactivity
QVQLVESGGGIVQAGGSLRLSCADSGFTFAFYAMGRYRQAPRKERELVAAISSGGGNTYYADSVKGRFTISRDNAKNTVYLQMNSLNPEDTAVYYCATRYISQGGYWGQGTQVTVSS | high polyreactivity

Sequence | polyreactivity (PSR sort gate)
QVQLVESGGGIVQAGGSLRLSCAGSGGILGDNTMGWYGHAPGKERELGASITRGGTTNYADSLTGRFTISREHAKNTVYFQKISLKPVDTAVYYCNAAVERFGDSPDYDYWGQGTQVTVSS | low polyreactivity
QVQLVESGGGIVQAGGSLRLSCASSGFTLGLYAMGWYRQAPGKERELVAVISGRGSRTYYADSVKGRFTISRDNAKNTVYLQMNSLKPEDTAVYYCAASYRTYYRTGYDYWGQGTQVTVSS | high polyreactivity
QVQLVESGGGIVQAGGSLRLSCPASGLTFIYYAMGWYRQAPGKERELVAAITRGTSTYYADSVKGRFTISRDNAKNTVYLQMNSLKPEDTAVYDCAAKSRRVRTYNYWGQGTQVTVSS | high polyreactivity
QVQLVESGGGIVQAGGSLRLSRAASGFTFPFYAMRWYRQAHGKERELVAAISQSGVRTYYADSVKGRFTISRDNAKNSVYLLMNSLKPEDTAVYYCAATSLNTRTGYWGQGTQVTVSS | high polyreactivity
QVQLVESGGGIVQAGGSLRLSSAATGRIYAKNAMGWYRQAPGKERELVAAINHSVGSTYYADSVKARFTISRDNANNTVYLQMISLIQEDTAVYYCATLQGDSSSQYDYWGQGTQVTVSS | high polyreactivity
QVQLVESGGGIVQAGGSLRLTCAASGRIFIYYYMGWYRQAPGKERELVADITLSGGSTYYADSVKGRFTISRDNAKNNVYLQMTSLKPEDTAVYYCAATRRYWKIFFGDGDYWGQATQVTVSS | high polyreactivity
QVQLVESGGGIVQAGGSLRVSCAASGRTFWGYAMGWYRQAPGKERELVAALNKSGGSTYYADSVKGRFTISRDNAKNTVYLQKNSLNPEDTAVYYCIAVYYWYKGDYWGQGTQVTVSS | high polyreactivity
QVQLVESGGGIVQAGRSLRVSCADSGSAFPRYDMGWYRPAPGKERELVAAISRGGSTNYADSVKGRFTLSRDNATNSVSLQMFCLIPVDPAVYYCAAQIFESAYGIVYWGQRTQVTVSS | low polyreactivity
QVQLVESGGGIVQAGVSLRLSCAASGITFIRYAMGWYRQAPGKERELVAAISSSGGSTYYADSVKGRFTISRDNAKNTVYLQMISLKPEDTAVYYCAARIPDRQDGYGYWGQGTQVTVSS | high polyreactivity
QVQLVESGGGKVQAGGSLRLSCAASGLTFWSYAMGWYRQAPGKERELVAAISGTGGRTYYADSVKGRFTITRDNAKNTVYLQMTSLKPEDTAVYYCTARTWRWYFTFDYWGQGTQVNVSS | high polyreactivity
QVQLVESGGGKVQAGGSLRLSCPPSGRTFYYYAMGWYRQAPGKVRELVAVIRSSGDSTYYADSVKGRFTISRDNEKNTVYLQMKSLKPDDTAVDYCAADAPSRSYSWHPRYYYWGQGSQVTVSS | low polyreactivity
QVQLVESGGGLAQAGGSLRLTCAASGNTFPLYPMGWYRQAPGKERELFAAISQRGGSTYYSDSVKGRFTISRDYAKNTVYLQMNSLKPEDTAFYYCAATWADEYQYRRYYYWGQGTQVTVSS | high polyreactivity
QVQLVESGGGLDQAGGSLPLSCASSGSIFRSNAMGWSRQPPAKAREMVAAITESGDTTNYADSVKGRFTISRDNAKNTVYLQMNSLKPEDTAVYYCNAGWTMSYVYSQMDYWGQGTQVTVSS | low polyreactivity
QVQLVESGGGLDQAGGSLRLICAASGSTFGGYVMGWYRQAPGKERELVAAISRSGASTYYADSVKGRFTISRDNAKNTVYLQMNSLKPEDTAVYYCAAYQARGMDYWGQGTQVTVSS | high polyreactivity
QVQLVESGGGLDQAGGSLRLICASSGRTFYPNAMGWYRQAPGKEREFVAAITWSGGGTFYADSVKGRFTISRDHAKNTVYLQMLSLNPEDTAVYYCAARLDTYQTQSVITPAALYYWGQGTQETVSS | low polyreactivity
QVQLVESGGGLDQAGGSLRLSCAAAGFIFHLNAMGWYRQAPGKERELLASIRSSGDSTHYADSEKGRFTISRDNAKITVYLQMNSLKPEDTAVFYCNADFYPAGTLTYDYWGQGTQVTVSS | low polyreactivity

From the nanobody polyreactivity screen of Harvey et al. (2022)
